In the DeepSol protein solubility set:

Assay: soluble on expression in E. coli; label from the status in PepcDB or PDB records

| Sequence | soluble on expression in E. coli |
| --- | --- |
| MGSDKIHHHHHHMRYVKLHSEYFPEFFNRLKEVGRVYGPVRHNSTYRFEEVNSIDELSLDYTRTILPPKKFFIRPRDAMFKIQKNEVTEVDGDGKFVLFGVHSCDIHGIKILDKVYLSNPPDPYYERRRKNAFIVGISCMPDEYCFCKSLGTDFAMDGFDIFLHELPDGWLVRVGSVKGHEFVWENQDIFDDVTEEDLRNFKEFEEKRAKAFKKSLNKEGLADILDLAFTSKVWKKYAEKCLGCGNCTIVCPTCRCYEVCDTWVRAYEALRMRRYDSCFMPTHGLVAGGHNFRPTRLDRFRHRYYCKNYFDPEAGFNCVGCGRCDEFCPARIEHVKVLDEVREGLI | not soluble |
| MAPKQPEKIENPPMASAPSSEKESGSTENEYGSSGEETNSSDDEHEEARDNVISTPLSFGQELVSFFKVENLTYLGIDEAKWIAYWDMVKDGPKKREVEKQLKKMLAMQMELFMMRTGFTKEVATVLFKQDNASSSGK | not soluble |
| MGHHHHHHSHDDVIDKTLNYTRRKSNDIVYIGSLSKDKGVDILLELVKTFTKNGNDTIIHIVGKGLLYEKIFERIGEINKRVIYYGPQPLKRALQIASRASLGVVLTRPSYESLTTDPMKPKVYLAAHTPVILPEYFEISSYVNRFKAGMVVGKLKPSYILSKVKVALEDSNTLLKGAERLAKS | not soluble |
| AWQAAVASNEPFGEAQLAQRIRRYLPEQGQLFVGNSLVVRLIDALAQLPAGYPVYSNRGASGIDGLIATAAGVQRASARPTLAIVGDLSALYDLNSLALLRQASAPLVLIVVNNNGGQIFSMLPTPQDERRQFYLMPQDVDFSHAAVMFGLAYHRPDDWPSLDEALAGAWRRAGATVIELAVNETDG | not soluble |
| MLRALRGAADLLSTALYKNEMMMSRRYLSTPAPEPAKPSSEETTESTEPATSVEDAGEPMKEKRITQPYSSEALTKLKLDQYPLYVEREWWKTGKRMTFWASWRQLRDVKRREQIQEVGADRMRLKAIKFNTILPQAIRDEAAEKMQKARKYDHPRLILNMCQFTGRQRGKIKPYRLSRHLFRRFADRSALSGVQRAMW | not soluble |
| MGSDKIHHHHHHAPLPQAPIPAPSMSLPGFHAPPPSTSNGTVASGAVRTQPARMPFYVATKGKVTIYVLGTLHVGDPADYPANQPFRRPILAALAASPTLALELSPDDLLESQDDVSKYGVCNYACLPRLLPPPLWQKLANRLRGNPAALAGIRNMRPWLASLVVETYDSLSAGLQTEYGTEAQLQNVFLRKKGGKVVGLETLAEQMRAFTGLTLAQQREMLAQDMVQTPAQNAADVRALHRLWRIGDADAIAAWANAKTERLARARSIADSIDNKIVYERNRRFVARMTAIAAPNRPLFVAIGSLHLGGPKGVLELLRQQGYRVDAG | not soluble |
| MTPLVKDIIMSSTRMPALFLGHGSPMNVLEDNLYTRSWQKLGMTLPRPQAIVVVSAHWFTRGTGVTAMETPPTIHDFGGFPQALYDTHYPAPGSPALAQRLVELLAPIPVTLDKEAWGFDHGSWGVLIKMYPDADIPMVQLSIDSSKPAAWHFEMGRKLAALRDEGIMLVASGNVVHNLRTVKWHGDSSPYPWATSFNEYVKANLTWQGPVEQHPLVNYLDHEGGTLSNPTPEHYLPLLYVLGAWDGQEPITIPVEGIEMGSLSMLSVQIGLEHHHHHH | soluble |
| MVESLKHTAAAAIAKLIHNGHFNSKSYAFDQESSNEVYAQLLRLDPQWSYNIDLKLKGLSFILTKVNFENVEMGPQTFGLLTQHNLKSLVLGNQDEIPSLEHYMSRLFRTSQIDHLDLSGRSQFSTAWLKTTGQQLPLLRTLNVSGVKLLNPDFFQFCKSFPNLYSLDISNCGVTILTGISRLKNLRHLSLRSLIYESWYDIRELFALKLLNVLDLSMHSTHHARRNMQRFLDCKQVLPELRFLECSGNLMDEDMLEELLITHSHLHQLAIVDCDVKAPKSSPIRILSCTTFDSSITALKYYLNLKRRNEVQICFQELRLHVKRLHERKMQYDVTECVTLSLQSLEKLPCSLIMNFDIVEERLFTSRLSFEADFLAEIVLHNFHRLSRVHTRLICDILLNNVNRQLIRDLRAETMWNAIIYLFNMGVFVDKQKLKGIASHCAASLHNGDPIIEEQAMRILTSCVTGKTLELVLSITESKHDTTPICLGFLRAALHKEDEQSSRRVAEKILAATHNNEEECKRYIKHGAMNMLISAIDRFDSEPMHIVILGIIRNLVMMSPYDKVQQIFTCVQFRTFQILLRNWTSSDRAYLMLSIFALRLNHQDKNFECVFRKCADELLRKHFPYLLATEITVDVDIYFDRGIVQNILRTSEEVGLVLWALLTIKIYAQKSLWNSRSIRDSNFFYLIENPHIASEVVNVASENVRFLFHW | not soluble |
| MLRVGPLTIGTLDDWAPSTGSTVSWRPSAVAHTKASQAPISDVPVSYMQAQHIRGYCEQKAKGLDYSRLMVVSCQQPGQCDIRAANYVINAHLRRHDTYRSWFQYNGNGQIIRRTIQDPADIEFVPVHHGELTLPQIREIVQNTPDPLQWGCFRFGIVQGCDHFTFFASVDHVHVDAMIVGVTLMEFHLMYAALVGGHAPLELPPAGSYDDFCRRQHTFSSTLTVESPQVRAWTKFAEGTNGSFPDFPLPLGDPSKPSDADIVTVMMLDEEQTAQFESVCTAAGARFIGGVLACCGLAEHELTGTTTYYGLTPRDTRRTPADAMTQGWFTGLIPITVPIAGSAFGDAARAAQTSFDSGVKLAEVPYDRVVELSSTLTMPRPNFPVVNFLDAGAAPLSVLLTAELTGTNIGVYSDGRYSYQLSIYVIRVEQGTAVAVMFPDNPIARESVARYLATLKSVFQRVAESGQQQNVA | not soluble |
| MAHLSYWFKQALELEQPQPAKPLNEDIAADVAIIGGGYTGLWTAIMIKQQAPKKHVVVIEKGLCGSGASGANGGCMLTWSTKFPTLKRLFGEAQAAWLVKESEQAVLEIDAFCKQHHIDAQLSLKGVYYTATNHVQAGSMQPVVDELSRLGVNSWRRCKEDELHANTGSPRHLEGFHSSVAASVQPALLARGLRRVALEMGIEIFENTPMTKLDFGQPATVSTPDAQIKAKQVVLALNAWMVEHFTQFKNSIVVVSSDMVITKPLGESLRKTGWQAGTSVLDSRIFVHYYRDTPDGRLMLGKGGNQFSFNNQVDVMFNKPTRYQNLLRKSFDKLFPSLKEAEFEYSWTGGSDRSTSGFPFFGKLNEQRNVFYGFGYSGNGVAQTRMGGKILSSMVLGLDNEWTRSGLAKGPLGHFPPEPFRWIGAMTVRNAVRRKEEAEDCGQKPFIWDKWLAKLAGPAGKADKLDLEHHHHHH | soluble |
| MSLKYGGIIMKEILVIAPTKGTYEKSIHIVKKNKYKTIDVVFGNLKEGIPLAEKSINHGTRIIISRGGTYNMLKATYNIPIVEIKVDAYDIIKSYKEVKNSNEPFGIIGFNNVIYGFDIIEEILNKKITMIEIEKEEEIYDAIEKYRKKGINTYIGDTTVAHIVKRLNCKGILIESREENILRAIQQAEQILEATKDEQKRRLQIEAMTDFVHDGIITVDKNFKITLFNKSAEKIFGIKKENALYHNVVDVIPNTVLPQVVETMEPQIGEIQNIGSTKIITNRVPIIVDGQIQGAVSTFQDSKEISSFEHTIRRSLLSKGLSAEGHHHHHH | soluble |
| MNYKVTAEAIPDYQSKNAPISSYWMPDKFLEWSAENDKDLVYNQSRVPLTKRISPDKLSPSNQNQNKKTKIVALSMMNSQTSGNPSRGTTKFESYTFDYWQYIDTLVYWGGSSGEGIIVTPSADVIDEAHSNGVPVLGTIFLPPKEYGGKVDWVKTMLKKDEQGQYPFASQMVKVAKTYGFEGWFINEETQGLNADDAANMKALIQQVKKEDSSLQIMWYDAMTKDGKVDWQNQLNDQNATFVQDKAADAMFLNFWWTQNNLADQKLLEKSNLYAKNHNIDPYNIYAGIDVQAKDVQTPVKWNLLEKGNQATQTSIGLYAASATYTNASNWDDFQNRESAFWVNQKADPRQVDHSVNESWTGLSKYVLEKSAISGNEFNTNFNLGNGYNYFKAGQKISEMDWNDRSLAGILPSYRWIIDNEGKNKISPSFDFANAYNGGNSLKFMAEHLDAGKLEHHHHHH | not soluble |
| MAHHHHHHMMRSSFVHKAAAAAAGGGMTATSSDHKMASLHKLLTGEVQFRNNALLKTCNIEHNFGATWKSDIEAYAKCLPADERSCLERQVARVMLTRYTTRELAEYCGEGPEHVDAVAREANIAQAKAHAQQYGADKLEAYVKAESKNAGWSEAETKSFLDAVKAAK | soluble |
| MPSLAELTKSLSIAFENGDYAACEKLLPPIKIELIKNNLLIPDLSIQNDIYLNDLMITKRILEVGALASIQTFNFDSFENYFNQLKPYYFSNNHKLSESDKKSKLISLYLLNLLSQNNTTKFHSELQYLDKHIKNLEDDSLLSYPIKLDRWLMEGSYQKAWDLLQSGSQNISEFDSFTDILKSAIRDEIAKNTELSYDFLPLSNIKALLFFNNEKETEKFALERNWPIVNSKVYFNNQSKEKADYEDEMMHEEDQKTNIIEKAMDYAISIENIV | soluble |
| MAHHHHHHMGTLEAQTQGPGSMLEKKTFKSSHTNAFHDFQARVYVADTDFSGVVYHARYLEFFERGRSEFLRDTGFNNTLLASGVEGEKLFFVVRHMEINFSRPAQIDNLLTIKTRISRLQGARFFMEQYILHGESMLVTAKVEIALINEEGKPRRLPKELFSTIVV | soluble |
| GHHHHHHAIAENLYFQSEDPVFTFGLIADVQYADIEDGENYLRTRRRYYRGSADLLRDAVLQWRRERVQCVVQLGDIIDGHNRRRDASDRALDTVMAELDACSVDVHHVWGNHEFYNFSRPSLLSSRLNSAQRTGTDTGSDLIGDDIYAYEFSPAPNFRFVLLDAYDLSVIGREEESEKHTHSWRILTQHNHNLQDLNLPPVSVGLEQRFVKFNGGFSEQQLQWLDAVLTLSDHKQERVLIFSHLPVHPCAADPICLAWNHEAVLSVLRSHQSVLCFIAGHDHDGGRCTDSSGAQHITLEGVIETPPHSHAFATAYLYEDRMVMKGRGRVEDLTITYS | soluble |
| MPVNSILGVFAKSPIKPLQEHMDKVYDCASLLVPFFEATITGNWDDAVQIRKQISLAEKQGDSLKREIRLTLPSGLFMPVERTDLLELLTQQDKIANKAKDISGRVIGRQLLIPQALQVPFIAYLQRCIDAVGLAQQVINELDDLLEAGFRGREVDFVAKMINELDIIEEDTDDLQIQLRRQLFALESELNPVDVMFLYKTIEWVGGLADLAERVGSRLELMLARVLEHHHHHH | soluble |
| MPTLGFRFRAYTDEQTLRALKAQLKLACKIYNTLRWADIYFYQRDGKGLTQTELRQLALDLRKQDDEYKQLYSQVVQQIADRYYEAKKRFFEGLARFPKEKKPHKYYSLVYTQSGWKILHVREIRKGSKKNKKKLITLKLSNLGTFKVIVHRDFPLDKVKRVVVKLTRSERIYITFVVEGYEFPKLPNTGKVVAIDVGVEKLLVTPDGEYFPNLRPLEKALWKVKHLHRELSRKKFLSNNWFKAKVKLARAYEHLKNLRSDLYMKLGKWFAEHYDVVVMEGIHAKQLVGKSLRSLRRRLSDVGFGELRDVLKYQLEKYGKKLILVNPAYTSKTCARCGYVKNDLSLSDRVFVCPNCGWIADRDYNASLNILKGAGSERSLVPVELRPLPVPALRYWHGRAVKQEAPSFMRGLEHHHHHH | soluble |
| MKSEPDTFSIDDLERVGTEPWNGVRNYQARNFMRDGMHVGDGVFFYHSNCKVPGIVGIAKVASAAYPDDTQFDPSSDYHDPKSTREDPRWMLVDVAFERKLTRTISLDEIKQQADALGEGFPLIARGNRLSILPVTAAQWKVLLAMELEHHHHHH | not soluble |
| MSLQAAKEVCLWPLHEREPDTTWSRGPLVLLGDAGHPMRPHMAQGAAMAIEDAAVLVRCLRAYGAAAGAAYDHYQQTRAERVAQVQKVSSENSWMRTPTDPEWVFSYDALLAPEGHHHHHH | not soluble |
